Publication PMC2965237 (Nucleic Acids Research, 2010)

B1: RdgC protein (Escherichia coli), wild type (natural protein)
chain: not shown
B2: RdgC Δfinger (P76G, Δ77–115, L116T) (natural protein)
chain: not shown
B3: RdgC R118C (natural protein)
chain: not shown
B4: RdgC Δfinger R118C (natural protein)
chain: not shown

Molecular target: the molecule itself
Assay: SEC

Row | Protein | stoichiometry N | binding result
1 | B1 | 2 | –
2 | B2 | – | binds
3 | B3 | – | binds
4 | B4 | – | binds
